Laboratory results as given in patent publication US20200317768A1 (published 2020).

T1: cynomolgus monkey FcγRIIa1 extracellular domain, C-terminal His-tag (cynomolgus monkey)
T1 construct: also called cyno FcγRIIa1; FcgRIIa1
T1 chain: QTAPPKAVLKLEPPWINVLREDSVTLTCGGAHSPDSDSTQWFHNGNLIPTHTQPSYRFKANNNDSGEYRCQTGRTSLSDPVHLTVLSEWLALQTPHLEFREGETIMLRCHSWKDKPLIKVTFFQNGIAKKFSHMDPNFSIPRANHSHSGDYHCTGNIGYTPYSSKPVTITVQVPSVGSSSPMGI

T2: cynomolgus monkey FcγRIIa2 extracellular domain, C-terminal His-tag (cynomolgus monkey)
T2 construct: also called cyno FcγRIIa2; FcgRIIa2
T2 chain: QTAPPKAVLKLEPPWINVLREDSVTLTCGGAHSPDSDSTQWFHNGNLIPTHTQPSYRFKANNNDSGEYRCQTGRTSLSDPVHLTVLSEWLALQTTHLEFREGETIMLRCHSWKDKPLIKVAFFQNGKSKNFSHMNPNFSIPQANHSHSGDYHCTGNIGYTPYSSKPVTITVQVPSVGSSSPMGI

T3: cynomolgus monkey FcγRIIa3 extracellular domain, C-terminal His-tag (cynomolgus monkey)
T3 construct: also called cyno FcγRIIa3; FcgRIIa3
T3 chain: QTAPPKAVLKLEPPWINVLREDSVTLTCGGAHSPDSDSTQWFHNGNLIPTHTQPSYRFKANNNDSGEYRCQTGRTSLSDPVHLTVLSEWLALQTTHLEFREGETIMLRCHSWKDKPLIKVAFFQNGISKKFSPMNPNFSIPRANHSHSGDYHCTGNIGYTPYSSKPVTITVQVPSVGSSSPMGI

T4: cynomolgus monkey FcγRIIb extracellular domain, C-terminal His-tag (cynomolgus monkey)
T4 construct: also called cyno FcγRIIb; cynoFcγRIIb
T4 chain: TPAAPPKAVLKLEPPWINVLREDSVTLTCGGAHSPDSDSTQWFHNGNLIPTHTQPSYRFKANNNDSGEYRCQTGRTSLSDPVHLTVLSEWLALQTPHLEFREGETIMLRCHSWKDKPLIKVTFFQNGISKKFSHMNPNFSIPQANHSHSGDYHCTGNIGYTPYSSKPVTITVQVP


What was measured:
Experiment in all cases: SPR; FcgR bound per captured antibody, normalized to SG1
[1] = molecular target: T1, cynomolgus monkey FcγRIIa1 …
Protocol: (§1) The kinetic analysis of interactions between these antibodies and FcγR was carried out using BIACORE® T200 or BIACORE® 4000 (GE Healthcare). HBS-EP+ (GE Healthcare) was used as the running buffer, and the measurement temperature was set to 25° C. A chip produced by immobilizing Protein A. Protein A/G or mouse anti-human IgG kappa light chain (BD Biosciences) onto a Series S Sensor Chip CM4 or CM5 (GE Healthcare) by the amine-coupling method was used. […] After the measurement, the antibody captured on the chip was washed off by allowing reaction with 10 mM glycine-HCl, pH1.5 and 25 mM NaOH so that the chip was regenerated and used repeatedly. The sensorgrams obtained as measurement results were analyzed by the 1:1 Langmuir binding model using the BIACORE® Evaluation Software to calculate the binding rate constant ka (L/mol/s) and dissociation rate constant kd (l/s), and the dissociation constant KD (mol/L) was calculated from these values. […] Regarding such interactions, KD values were calculated using the following 1:1 binding model described in BIACORE® T100 Software Handbook BR1006-48 Edition AE.
(§2) The value of the amount of FcγR binding was obtained by dividing the amount of FcγR bound by the amount of each antibody captured.

[2] = molecular target: T2, cynomolgus monkey FcγRIIa2 …
Protocol: as §1, §2

[3] = molecular target: T3, cynomolgus monkey FcγRIIa3 …
Protocol: as §1, §2

[4] = molecular target: T4, cynomolgus monkey FcγRIIb extracellular …
Protocol: as §1, §2

Row | Binder | amount of FcgR binding (SG1 = 100) [1] [SG1 = 100] | amount of FcgR binding (SG1 = 100) [2] [SG1 = 100] | amount of FcgR binding (SG1 = 100) [3] [SG1 = 100] | amount of FcgR binding (SG1 = 100) [4] [SG1 = 100]
1 | M103205H795-SG171/M103202L889-SK1 (antibody, human IgG1, kappa, also called S239P) heavy: not shown light: DIVMTQSPATLSLSPGERATLSCTSSQSVYHANWLSWFQQKPGQPPKLLIYWASTLAYGVPSRFSGSGSGTDFTLTISSLQPEDAATYYCAGGYGGGRYAFGQGTKVEIKRTVAAPSVFIFPPSDEQLKSGTASVVCLLNNFYPREAKVQWKVDNALQSGNSQESVTEQDSKDSTYSLSSTLTLSKADYEKHKVYACEVTHQGLSSPVTKSFNRGEC | 17 | 20 | 18 | 20
2 | M103205H795-SG175/M103202L889-SK1 (antibody, human IgG1, kappa, also called N325F) heavy: not shown light: DIVMTQSPATLSLSPGERATLSCTSSQSVYHANWLSWFQQKPGQPPKLLIYWASTLAYGVPSRFSGSGSGTDFTLTISSLQPEDAATYYCAGGYGGGRYAFGQGTKVEIKRTVAAPSVFIFPPSDEQLKSGTASVVCLLNNFYPREAKVQWKVDNALQSGNSQESVTEQDSKDSTYSLSSTLTLSKADYEKHKVYACEVTHQGLSSPVTKSFNRGEC | 13 | 13 | 17 | 14
